In article PMC7699480:

Assays:
[1] = molecular target: nimotuzumab-SpyTag (human (hG1 in the plasmid's name)); experiment: electrophoresis on a bioanalyzer after covalent ligation; ∆N-SpyCatcher-DFO reacted with IgG-SpyTag at molar ratios 0:1, 1:4, 1:2, 1:1 and 2:1; 1 h, PBS, room temperature; products analysed under reducing conditions; read-out is the share of heavy chain shifted from ~64 kDa to ~81 kDa
[2] = molecular target: control-IgG-SpyTag (human (hG1 in the plasmid's name)); experiment: as above
IgG-SpyTag = experiment: electrophoresis on a bioanalyzer after covalent ligation; time course at 1:1 molar ratio; IgG-SpyTag 10 µM; ∆N-SpyCatcher-DFO kept at RT or heated for 1 h beforehand; reaction stopped by 10-fold dilution and storage at −80 °C; read-out is the share of heavy chain converted
[3] = molecular target: nimotuzumab-SpyTag (human (hG1 in the plasmid's name)); experiment: electrophoresis on a bioanalyzer after covalent ligation; nimotuzumab-SpyTag (10 µM) ligated with ∆N-SpyCatcher-DFO (20 µM), 1:1 SpyTag:SpyCatcher; molecular weight of the whole conjugate

nimotuzumab-SpyTag (human (hG1 in the plasmid's name)), sequence (heavy, as listed by the source, chain 1 of 2): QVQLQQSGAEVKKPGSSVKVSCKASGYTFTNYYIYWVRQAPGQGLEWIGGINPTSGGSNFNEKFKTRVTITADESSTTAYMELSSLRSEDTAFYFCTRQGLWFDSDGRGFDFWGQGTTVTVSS
nimotuzumab-SpyTag (human (hG1 in the plasmid's name)), sequence (light, as listed by the source, chain 2 of 2): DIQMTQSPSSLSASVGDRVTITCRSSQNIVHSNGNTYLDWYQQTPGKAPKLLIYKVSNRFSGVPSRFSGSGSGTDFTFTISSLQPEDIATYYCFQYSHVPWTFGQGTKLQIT

∆N-SpyCatcher-DFO (designed binder)
percent of heavy chain conjugated (SpyCatcher:SpyTag 1:1) [1]: 99%
percent of heavy chain conjugated (SpyCatcher:SpyTag 1:2) [1]: 50%
percent of heavy chain conjugated (SpyCatcher:SpyTag 1:4) [1]: 25%
percent of heavy chain conjugated (SpyCatcher:SpyTag 1:1) [2]: 99%
percent of heavy chain conjugated (SpyCatcher:SpyTag 1:2) [2]: 50%
percent of heavy chain conjugated (SpyCatcher:SpyTag 1:4) [2]: 25%
percent of heavy chain converted (1 min) (IgG-SpyTag): 35%
percent of heavy chain converted (15 min) (IgG-SpyTag): 94%
percent of heavy chain converted (stopped reaction) (IgG-SpyTag): 13%
stoichiometry N [3]: 2
